Measurements from US20180044393A1 (INSERM INSTITUT NATIONAL DE LA SANT ET DE LA RECHERCHE M …, published 2018).
Residue numbers refer to the chain shown, from its start. Positions of bridges follow the written chain, without caps; N, C: chain ends. No end group written: not given here. *: point of attachment. 125I = [125I]*

Experiments:
Experiment in all cases: 125I-OxA binding on CHO-S cells expressing the OX1R mutant
OX1R C99A = target: T1, OX1R C99A (human, UniProt O43613 1-425)
T1 construct: site-directed mutant (TM2) stably expressed in CHO-S cells; not shown: YFP from vector pEYFP-N2 fused at the C-terminus
T1 chain: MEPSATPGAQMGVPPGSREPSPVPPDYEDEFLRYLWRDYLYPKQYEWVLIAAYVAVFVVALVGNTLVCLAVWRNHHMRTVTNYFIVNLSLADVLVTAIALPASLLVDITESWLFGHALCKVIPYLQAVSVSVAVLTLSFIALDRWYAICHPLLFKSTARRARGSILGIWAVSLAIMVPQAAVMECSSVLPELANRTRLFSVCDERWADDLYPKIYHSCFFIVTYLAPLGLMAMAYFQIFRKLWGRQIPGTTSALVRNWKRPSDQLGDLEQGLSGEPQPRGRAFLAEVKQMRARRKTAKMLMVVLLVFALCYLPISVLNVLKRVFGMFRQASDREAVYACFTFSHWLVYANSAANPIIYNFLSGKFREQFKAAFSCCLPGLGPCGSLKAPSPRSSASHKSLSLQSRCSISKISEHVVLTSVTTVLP
Experimental: (§1) CHO—S cells expressing recombinant native or mutated OX1R were grown as previously described (El Firar et al., 2009) and maintained at 37° C. in a humidified 5% CO₂/air incubator. ¹²⁵I-orexia-A (74 TBq/mmol) was prepared as previously described (El Firar et al., 2009). […] Free peptides were removed by 2 cell washing cycles with PBS. […] Data were analyzed using the GraphPad software (http://www.graphpad.com).
(§2) All residues of OX1R fulfilling this condition were mutated to alanine by site-directed mutagenesis (Table II).

OX1R L320A = target: T2, OX1R L320A (human, UniProt O43613 1-425)
T2 construct: site-directed mutant (TM6) stably expressed in CHO-S cells; not shown: YFP from vector pEYFP-N2 fused at the C-terminus
T2 chain: T1 chain with A99C, L320A
Experimental: as §1, §2

OX1R F220A = target: T3, OX1R F220A (human, UniProt O43613 1-425)
T3 construct: site-directed mutant (TM5) stably expressed in CHO-S cells; not shown: YFP from vector pEYFP-N2 fused at the C-terminus
T3 chain: T1 chain with A99C, F220A
Experimental: as §1, §2

OX1R V319A = target: T4, OX1R V319A (human, UniProt O43613 1-425)
T4 construct: site-directed mutant (TM6) stably expressed in CHO-S cells; not shown: YFP from vector pEYFP-N2 fused at the C-terminus
T4 chain: T1 chain with A99C, V319A
Experimental: as §1, §2

OX1R V121A = target: T5, OX1R V121A (human, UniProt O43613 1-425)
T5 construct: site-directed mutant (TM3) stably expressed in CHO-S cells; not shown: YFP from vector pEYFP-N2 fused at the C-terminus
T5 chain: T1 chain with A99C, V121A
Experimental: as §1, §2

Measured: binding result

B1: 125I-orexin-A (peptide, UniProt O43612 34-66, looked up)
peptide: QPLPDCCRQKTCSCRLY(125I)ELLHGAGNHAAGILTL
modifications: disulfide 6-12, 7-14; not fully specified (residue 1, C-terminus)
notes: mature; also called OxA
binds: all assays above
